Laboratory results published in article doi:10.1101/625400, “Massively parallel reporter assays combined with cell-type specific eQTL informed multiple melanoma loci and identified a pleiotropic function of HIV-1 restriction gene, MX2, in melanoma promotion”.

Molecular target: YY1 full-length recombinant (Active Motif 31332) (UniProt P25490 1-414)
Assay: EMSA; 100-750 ng YY1, 10 mM Mg2+; EMSA: 10 mM Tris pH 7.5, 50 mM KCl, 1 mM DTT, 10 mM MgCl2, 4 C, 30 min (poly d(I-C) with nuclear extract)
Details: protein: commercial; label: 5' biotin (both strands); blunt

YY1 full-length recombinant (Active Motif 31332), sequence (P25490 whole entry): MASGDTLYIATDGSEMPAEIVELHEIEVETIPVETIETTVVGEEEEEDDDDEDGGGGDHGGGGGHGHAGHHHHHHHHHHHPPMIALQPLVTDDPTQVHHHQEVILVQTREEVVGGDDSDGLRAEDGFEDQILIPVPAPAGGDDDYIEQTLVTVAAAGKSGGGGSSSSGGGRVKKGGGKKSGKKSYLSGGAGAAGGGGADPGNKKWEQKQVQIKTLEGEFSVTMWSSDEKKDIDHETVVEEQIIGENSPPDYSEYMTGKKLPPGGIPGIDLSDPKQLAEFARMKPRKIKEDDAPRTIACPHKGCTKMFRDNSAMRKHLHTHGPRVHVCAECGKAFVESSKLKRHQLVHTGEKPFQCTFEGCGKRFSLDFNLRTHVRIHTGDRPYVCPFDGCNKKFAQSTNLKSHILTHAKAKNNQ

B1: rs398206 A allele EMSA probe (dsDNA)
DNA 1: GTCCGTCCCAACATGGCGGGT
DNA 2: ACCCGCCATGTTGGGACGGAC
- binding result: binds
